Data from paper PMC5415106, “Dpb11 may function with RPA and DNA to initiate DNA replication” (PLoS ONE, 2017).

B2: GST-Dpb11-m1,2,3,5,ΔC (natural protein, budding yeast, UniProt P47027 1-615, looked up)
chain: MKPFQGITFCPTAINNEILAKKISKKIIKLGGIFSKDLTRQVNVLVVGSTTNTNKFKFAVKHRFDIIFIDIQAIDDIYQLWLSGENILPDSNTATMTGSTYEMLKILYRRFSFKYLHNFNIFIGRITDTNITSIDSLVRSIKKLGCSSYNYQNFVIKDTSSHNDDDDQGQNGQISIFVTDTLLGARVNAAIEQNIPIVHFKWILDCQKRSALLPYDPYYLLPNIKDLPYDSIGSNSCDCWDKINTTFPTNIDAQSSLQRQQSSSTLTPSLPKTSSLLNKFKPKGEKIWDKAMSLQQHSKTNFSVLGQSPLSINNKQEDLSDNSTLIFKNCAFIIHHIFPGNHRSILTKIVVQNGGKIETSYLSGIYDHSYYIIPSNKALDSFNDLPEIIDDNDGIVTEFFIERCLYYQKLLHPIDLWSKPFLSTIEFQVSSSSKLLHHEFSSSPFLNVTITGFSGVELLHLTEVLNLLEPMGINYVEYLNKSTDILLINLAALPSIPKTHPLWSNEFSDLFTQFCINNNNDDPGDNNRKDFQNNSILENSMKRKIEYIEKFHSIPVVTPAFIFKLLSAASGENNEIFLNNIKWCIICPRGHKDDFKCKIKKPYYTSISSEKKYQN
notes: Dpb11, budding yeast; ΔC = deletion of amino acids 616 to 764 (the C-terminus), so residues up to 615 remain; m1,2,3,5 = K463E, K469E, R538E, K549E in the BRCT4 motif; also called Dpb11-K463E, K469E, R538E,K549E, Δaa616-764; Dpb11-m1,2,3,4,ΔC (as printed once)
B3: Cdc45 (purified, radiolabelled) (natural protein, budding yeast, UniProt Q08032 1-650, looked up)
chain: MYYGISQFSEAYNKILRNSSSHSSCQLVIFVSCLNIDALCATKMLSLLFKKQLVQSQIVPIFGYSELRRHYSQLDDNINSLLLVGFGGVIDLEAFLEIDPQEYVIDTDEKSGEQSFRRDIYVLDAHRPWNLDNIFGSQIIQCFDDGTVDDTLGEQKEAYYKLLELDEESGDDELSGDENDNNGGDDEATDADEVTDEDEEDEDETISNKRGNSSIGPNDLSKRKQRKKQIHEYEGVLEEYYSQGTTVVNSISAQIYSLLSAIGETNLSNLWLNILGTTSLDIAYAQVYNRLYPLLQDEVKRLTPSSRNSVKTPDTLTLNIQPDYYLFLLRHSSLYDSFYYSNYVNAKLSLWNENGKKRLHKMFARMGIPLSTAQETWLYMDHSIKRELGIIFDKNLDRYGLQDIIRDGFVRTLGYRGSISASEFVEALTALLEVGNSTDKDSVKINNDNNDDTDGEEEEDNSAQKLTNLRKRWVSNFWLSWDALDDRKVELLNRGIQLAQDLQRAIFNTGVAILEKKLIKHLRIYRLCVLQDGPDLDLYRNPLTLLRLGNWLIECCAESEDKQLLPMVLASIDENTDTYLVAGLTPRYPRGLDTIHTKKPILNNFSMAFQQITAETDAKVRIDNFESSIIEIRREDLSPFLEKLTLSGLL
notes: Cdc45, budding yeast; The legend says only 'Similar to (A), except Cdc45 was used in place of Sld2T84D'; not shown: PKA tag (inferred from the radiolabelling method), N-terminal, kept

Legend:
Assay in all cases: pull-down; 10 pmol GST-tagged Dpb11 with 32P-labelled protein, no DNA; GST-binding buffer (40 mM Tris-HCl pH 7.5, 100 mM NaCl, 0.1 mM EDTA, 10% glycerol, 0.1% Triton X-100, 1 mM DTT, 0.1 mg/ml BSA), 25°C 1 h; glutathione Sepharose, two washes; SDS-PAGE and phosphorimaging
Conditions in all cases: both partners purified
GST-Dpb11-wild-type = target: T1, GST-Dpb11-wild-type (budding yeast, UniProt P47027 1-764)
T1 construct: Dpb11, budding yeast, full-length; also called Full-length Dpb11; wild-type Dpb11
T1 sequence (looked up): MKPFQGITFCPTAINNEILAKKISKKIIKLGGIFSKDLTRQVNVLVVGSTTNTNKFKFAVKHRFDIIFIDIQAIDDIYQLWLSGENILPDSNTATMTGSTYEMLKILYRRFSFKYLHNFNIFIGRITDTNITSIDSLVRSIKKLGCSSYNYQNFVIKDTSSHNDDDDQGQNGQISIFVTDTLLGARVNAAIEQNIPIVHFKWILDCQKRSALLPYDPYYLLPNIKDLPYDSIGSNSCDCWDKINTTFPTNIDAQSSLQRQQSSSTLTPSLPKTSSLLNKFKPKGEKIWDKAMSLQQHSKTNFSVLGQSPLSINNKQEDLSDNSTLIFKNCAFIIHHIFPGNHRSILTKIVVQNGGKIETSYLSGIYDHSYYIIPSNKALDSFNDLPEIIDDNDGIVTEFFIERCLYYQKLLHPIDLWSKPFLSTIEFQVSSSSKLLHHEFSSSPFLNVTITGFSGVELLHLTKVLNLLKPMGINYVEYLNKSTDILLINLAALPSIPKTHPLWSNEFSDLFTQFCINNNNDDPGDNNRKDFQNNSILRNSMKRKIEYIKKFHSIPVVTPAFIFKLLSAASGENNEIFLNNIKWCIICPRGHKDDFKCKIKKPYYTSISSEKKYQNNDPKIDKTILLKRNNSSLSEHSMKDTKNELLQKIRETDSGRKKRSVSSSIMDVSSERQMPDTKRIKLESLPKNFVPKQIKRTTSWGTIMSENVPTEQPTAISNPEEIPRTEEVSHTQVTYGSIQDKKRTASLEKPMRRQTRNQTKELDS

GST-Dpb11-m1,2,3,5,ΔC = target: B2
[1] = target: B3
[2] = target: T2, Mcm2-7 complex with a PKA tag at the N-terminus of Mcm2 (budding yeast, UniProt P29469 1-868; P24279 1-971; P30665 1-933; P29496 1-775; P53091 1-1017; P38132 …, 32P-phosphate on the PKA tag)
T2 construct: Mcm2, budding yeast; Mcm3, budding yeast; Mcm4, budding yeast; Mcm5, budding yeast; Mcm6, budding yeast; Mcm7, budding yeast (named only within 'Mcm2-7'); not shown: PKA tag, N-terminal, kept; copies: + + + + +

B1: PKA-Sld2T84D (natural protein, budding yeast, UniProt P34252 1-453, looked up)
chain: MYSFELDKLKIELKTWEHDFIDKNKREPTRDDIKSLRTVRQMYKQYSTLKKKQSLQRQKVDTQESVELPAHKKDHDEVVEIGPDPQVYGKAISIFDMNLSPIKPIYMTFTNNIDVNNDNSKTISNESSPRKTILLKSSPADRTLVAEPISSVKRQLNFQMLNASSTRTPTSSPCKNRNGKLVEIKKCSPTINPPLESGKPSGYYGPNSPLKLDEENIHLNISLNSSTKRRLQIAYPSLQKTPSKDQADISTSFSPSPLIRRPLTKSLIELAREHTEIVKEFGVLQEEDIEEEEEGEEGENGYDEKNHEDDFGLEDELIRPKVVKDIFQEDDDNDDSQAREDTFIRKRPKRRKVIRRLRDNDPETETAGFERDVHKELVKLKRRKVAEFLGSTSQISDTEFEHDPEASSGVVSSEQKPTAKRKGRKKYNLVSNNFRRLKLPKKNRFSNGRWGRR
modifications: 32P-phosphate on the artificial PKA site
notes: Sld2, budding yeast, with T84D; not shown: PKA site, N-terminal, kept
GST-Dpb11-wild-type
  binding result: binds
GST-Dpb11-m1,2,3,5,ΔC
  binding result: binds

## B2
[1]
  binding result: binds
[2]
  binding result: binds

## B3
GST-Dpb11-wild-type
  binding result: binds
